Reference: article PMC6555819, “Comprehensive study of nuclear receptor DNA binding provides a revised framework for understanding receptor specificity”
Where a chain is given by its changes, count along the chain named.

B1: NRC3_wobSeed47_DR1_G20C_o1 (dsDNA)
DNA 1: GCGGAACGAGGGCAAAGTTCATAGCATCTGTCGACGGCGATTGACAGCGTAGAATGAAGG
DNA 2: CCTTCATTCTACGCTGTCAATCGCCGTCGACAGATGCTATGAACTTTGCCCTCGTTCCGC
B2: NRC3_wobSeed29_DR1_A7C_o1 (dsDNA)
DNA 1: GCGCTTCCGGGTCAAAGGTTATAGCATGAATAGAATGCGATTGACAGCGTAGAATGAAGG
DNA 2: CCTTCATTCTACGCTGTCAATCGCATTCTATTCATGCTATAACCTTTGACCCGGAAGCGC
B3: NRC3_wobSeed73_DR3_A6T_o1 (dsDNA)
DNA 1: GCCAATCTAGGTCACAGAGGTCAAAGTCCGTGCGTAGCGATTGACAGCGTAGAATGAAGG
DNA 2: CCTTCATTCTACGCTGTCAATCGCTACGCACGGACTTTGACCTCTGTGACCTAGATTGGC
B4: NRC3_wobSeed76_DR3_T21C_o1 (dsDNA)
DNA 1: GCCCTACTGGGCCAAAAAGGCCATTGATGCCGATAAGCGATTGACAGCGTAGAATGAAGG
DNA 2: CCTTCATTCTACGCTGTCAATCGCTTATCGGCATCAATGGCCTTTTTGGCCCAGTAGGGC
B5: NRC3_random_hg19_123_o1 (dsDNA)
DNA 1: GCGTGGAGAAAGTTCTGAGACTGAAGATGACTTTCCGCGATTGACAGCGTAGAATGAAGG
DNA 2: CCTTCATTCTACGCTGTCAATCGCGGAAAGTCATCTTCAGTCTCAGAACTTTCTCCACGC
B6: NRC3_wobSeed37_DR1_C6A_o1 (dsDNA)
DNA 1: GCCGTACAAGGTCAAAGGTCAGTGAAGAGATGACGGGCGATTGACAGCGTAGAATGAAGG
DNA 2: CCTTCATTCTACGCTGTCAATCGCCCGTCATCTCTTCACTGACCTTTGACCTTGTACGGC
B7: NRC3_wobSeed37_DR1_C6T_o1 (dsDNA)
DNA 1: B6 DNA 1 with A6T
DNA 2: B6 DNA 2 with T55A
B8: NRC3_random_hg19_293_o1 (dsDNA)
DNA 1: GCGGAGAGGTCTTAGGATGCATTGGAGGCACAGTGTGCGATTGACAGCGTAGAATGAAGG
DNA 2: CCTTCATTCTACGCTGTCAATCGCACACTGTGCCTCCAATGCATCCTAAGACCTCTCCGC
B9: NRC3_wobSeed66_DR2_A8G_o1 (dsDNA)
DNA 1: GCAATACGGGGTCACTAGGCCAGAGTAGGTACGAATGCGATTGACAGCGTAGAATGAAGG
DNA 2: CCTTCATTCTACGCTGTCAATCGCATTCGTACCTACTCTGGCCTAGTGACCCCGTATTGC
B10: NRC3_wobSeed93_DR3_T11G_o1 (dsDNA)
DNA 1: GCAGTCAAAGGTCATCTAGGTAACGTAAGATATGCTGCGATTGACAGCGTAGAATGAAGG
DNA 2: CCTTCATTCTACGCTGTCAATCGCAGCATATCTTACGTTACCTAGATGACCTTTGACTGC
B11: NRC3_wobSeed46_DR1_C6A_o1 (dsDNA)
DNA 1: GCTTAACAAGGTGAAAGGTCGTTGATGCACGCCTTGGCGATTGACAGCGTAGAATGAAGG
DNA 2: CCTTCATTCTACGCTGTCAATCGCCAAGGCGTGCATCAACGACCTTTCACCTTGTTAAGC
B12: NRC3_random_hg19_479_o1 (dsDNA)
DNA 1: GCAAGTAAACAGCCCTCTAGCTTGGGTGGAAATGTGGCGATTGACAGCGTAGAATGAAGG
DNA 2: CCTTCATTCTACGCTGTCAATCGCCACATTTCCACCCAAGCTAGAGGGCTGTTTACTTGC
B13: NRC3_wobSeed13_DR0_C7A_o1 (dsDNA)
DNA 1: GCCGTCAAAGGTCAAGGTCAGTGAAAGAGACTCGAAGCGATTGACAGCGTAGAATGAAGG
DNA 2: CCTTCATTCTACGCTGTCAATCGCTTCGAGTCTCTTTCACTGACCTTGACCTTTGACGGC
B14: NRC3_random_hg19_106_o1 (dsDNA)
DNA 1: GCAAGGAATGTAATCTAACTCTGTATTCAAAGAAGAGCGATTGACAGCGTAGAATGAAGG
DNA 2: CCTTCATTCTACGCTGTCAATCGCTCTTCTTTGAATACAGAGTTAGATTACATTCCTTGC
B15: NRC3_random_hg19_499_o1 (dsDNA)
DNA 1: GCCATGTGGACTTCATTCGACCCAGCTGAGAAGACTGCGATTGACAGCGTAGAATGAAGG
DNA 2: CCTTCATTCTACGCTGTCAATCGCAGTCTTCTCAGCTGGGTCGAATGAAGTCCACATGGC
B16: NRC3_random_hg19_68_o1 (dsDNA)
DNA 1: GCAGCAGTGAGGACCAATGGGCAGTCCAGGAGGAAAGCGATTGACAGCGTAGAATGAAGG
DNA 2: CCTTCATTCTACGCTGTCAATCGCTTTCCTCCTGGACTGCCCATTGGTCCTCACTGCTGC
B17: NRC3_random_hg19_250_o1 (dsDNA)
DNA 1: GCCAAGACCATCCTGGCTAACACAGTGAAACCCTGTGCGATTGACAGCGTAGAATGAAGG
DNA 2: CCTTCATTCTACGCTGTCAATCGCACAGGGTTTCACTGTGTTAGCCAGGATGGTCTTGGC
B18: NRC3_random_hg19_169_o1 (dsDNA)
DNA 1: GCCTTCCCTGCTGCTTTGTTTACCTAAGCAAGCCTGGCGATTGACAGCGTAGAATGAAGG
DNA 2: CCTTCATTCTACGCTGTCAATCGCCAGGCTTGCTTAGGTAAACAAAGCAGCAGGGAAGGC
B19: NRC3_wobSeed49_DR2_A17G_o1 (dsDNA)
DNA 1: GCCAAACTAGGTCAAGGGGTCAAAGTCCGCTTCCCGGCGATTGACAGCGTAGAATGAAGG
DNA 2: CCTTCATTCTACGCTGTCAATCGCCGGGAAGCGGACTTTGACCCCTTGACCTAGTTTGGC
B20: NRC3_random_hg19_207_o1 (dsDNA)
DNA 1: GCGCAAAGGCTGCGGTGCAATCCTGCATTCTTGTTCGCGATTGACAGCGTAGAATGAAGG
DNA 2: CCTTCATTCTACGCTGTCAATCGCGAACAAGAATGCAGGATTGCACCGCAGCCTTTGCGC

Legend:
PPARg:RXRa = PPARg:RXRa (Homo sapiens, UniProt P37231;P19793 full;full); experiment: no ligand; PBM; 180 nM : 90 nM RXRa; PBS pH 7.4, 2% milk, 0.02% Triton X-100, 1 mM DTT, BSA, 0.4 mg/ml salmon testes DNA; settings: tags: His kept;His cleaved; copies: 1;1; label: surface-attached array probe
LXRb:RXRa = LXRb:RXRa (Homo sapiens, UniProt P55055;P19793 full;full); experiment: no ligand; PBM; 270 nM : 90 nM RXRa; PBS pH 7.4, 2% milk, 0.02% Triton X-100, 1 mM DTT, BSA, 0.4 mg/ml salmon testes DNA; settings: tags: His kept;His cleaved; copies: 1;1; label: surface-attached array probe
Outline: (§1)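 Binding buffer was PBS pH 7.4 with 2% milk, 0.02% Triton X-100, 1 mM DTT, 0.2 mg/mL BSA and 0.4 mg/ml salmon testes DNA. In it, ligand-free nuclear receptor dimers were incubated 1 h on custom Agilent 4×180K protein-binding microarrays carrying double-stranded probes. Antibodies against each partner (one per run) detected binding, and z-scores were calculated against random background probes after regression normalization of scanned fluorescence.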

PXR:RXRa = PXR:RXRa (Homo sapiens, UniProt O75469;P19793 full;full); experiment: as above; settings: tags: His kept;His cleaved; copies: 1;1; label: surface-attached array probe
Outline: as §1

LXRa:RXRa = LXRa:RXRa (Homo sapiens, UniProt Q13133;P19793 full;full); experiment: as above; settings: tags: His kept;His cleaved; copies: 1;1; label: surface-attached array probe
Outline: as §1

FXR:RXRa = FXR:RXRa (Homo sapiens, UniProt Q96RI1;P19793 full;full); experiment: as above; settings: tags: His kept;His cleaved; copies: 1;1; label: surface-attached array probe
Outline: as §1

VDR:RXRa = VDR:RXRa (Homo sapiens, UniProt P11473;P19793 full;full); experiment: as above; settings: tags: His kept;His cleaved; copies: 1;1; label: surface-attached array probe
Outline: as §1

RXRa = RXRa (Homo sapiens, UniProt P19793); experiment: no ligand; PBM; 180 nM; PBS pH 7.4, 2% milk, 0.02% Triton X-100, 1 mM DTT, BSA, 0.4 mg/ml salmon testes DNA; settings: tags: His cleaved; chain copies: 2; label: surface-attached array probe
PPARa:RXRa = PPARa:RXRa (Homo sapiens, UniProt Q07869;P19793 full;full); experiment: no ligand; PBM; 270 nM : 90 nM RXRa; PBS pH 7.4, 2% milk, 0.02% Triton X-100, 1 mM DTT, BSA, 0.4 mg/ml salmon testes DNA; settings: tags: GST kept;His cleaved; copies: 1;1; label: surface-attached array probe
Outline: as §1

RARb:RXRa = RARb:RXRa (Homo sapiens, UniProt P10826;P19793 full;full); experiment: as above; settings: tags: His kept;His cleaved; copies: 1;1; label: surface-attached array probe
Outline: as §1

RARg:RXRa = RARg:RXRa (Homo sapiens, UniProt P13631;P19793 full;full); experiment: as above; settings: tags: His kept;His cleaved; copies: 1;1; label: surface-attached array probe
Outline: as §1

FXR:RXRa, sequence (Q96RI1 whole entry, chain 1 of 2): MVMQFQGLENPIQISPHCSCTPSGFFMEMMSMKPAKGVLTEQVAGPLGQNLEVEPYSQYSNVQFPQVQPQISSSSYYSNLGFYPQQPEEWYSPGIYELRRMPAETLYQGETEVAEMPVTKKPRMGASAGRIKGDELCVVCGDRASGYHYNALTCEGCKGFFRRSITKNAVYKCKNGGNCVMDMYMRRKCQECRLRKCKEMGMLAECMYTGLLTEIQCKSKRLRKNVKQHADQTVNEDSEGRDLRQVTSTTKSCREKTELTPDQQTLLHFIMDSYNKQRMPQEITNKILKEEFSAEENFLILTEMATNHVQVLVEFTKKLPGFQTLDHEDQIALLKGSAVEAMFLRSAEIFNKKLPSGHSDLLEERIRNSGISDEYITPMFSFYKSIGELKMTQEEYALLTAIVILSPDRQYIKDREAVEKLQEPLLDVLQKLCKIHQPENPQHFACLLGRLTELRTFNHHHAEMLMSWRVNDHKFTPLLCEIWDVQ
FXR:RXRa, sequence (P19793 whole entry, chain 2 of 2): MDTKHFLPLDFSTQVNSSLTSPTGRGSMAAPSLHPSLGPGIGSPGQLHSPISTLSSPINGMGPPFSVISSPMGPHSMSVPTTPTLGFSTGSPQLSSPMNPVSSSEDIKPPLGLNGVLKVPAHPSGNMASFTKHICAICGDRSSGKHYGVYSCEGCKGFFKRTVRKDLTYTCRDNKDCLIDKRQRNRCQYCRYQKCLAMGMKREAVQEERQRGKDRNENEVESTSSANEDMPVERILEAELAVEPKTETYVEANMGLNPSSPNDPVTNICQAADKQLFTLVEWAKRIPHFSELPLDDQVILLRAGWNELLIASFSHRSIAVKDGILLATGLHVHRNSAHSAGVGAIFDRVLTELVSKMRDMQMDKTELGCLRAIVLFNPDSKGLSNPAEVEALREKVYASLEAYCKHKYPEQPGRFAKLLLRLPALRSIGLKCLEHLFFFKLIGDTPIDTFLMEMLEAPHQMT
RXRa, sequence (P19793 whole entry): as the sequence (P19793 whole entry, chain 2 of 2) above
VDR:RXRa, sequence (P11473 whole entry, chain 1 of 2): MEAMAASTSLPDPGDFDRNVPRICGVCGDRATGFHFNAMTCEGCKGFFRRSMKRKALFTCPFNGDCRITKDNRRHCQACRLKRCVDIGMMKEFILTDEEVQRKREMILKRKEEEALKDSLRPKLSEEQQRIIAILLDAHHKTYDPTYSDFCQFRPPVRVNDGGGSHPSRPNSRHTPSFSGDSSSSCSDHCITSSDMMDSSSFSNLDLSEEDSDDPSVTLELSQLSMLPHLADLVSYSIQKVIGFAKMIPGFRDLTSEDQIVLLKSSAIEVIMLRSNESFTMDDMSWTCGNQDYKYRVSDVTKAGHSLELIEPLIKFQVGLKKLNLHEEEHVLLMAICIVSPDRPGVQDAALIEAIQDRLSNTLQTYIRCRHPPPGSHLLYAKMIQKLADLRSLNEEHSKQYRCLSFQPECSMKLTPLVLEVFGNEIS
VDR:RXRa, sequence (P19793 whole entry, chain 2 of 2): as the sequence (P19793 whole entry, chain 2 of 2) above
PPARg:RXRa, sequence (P37231 29-505, chain 1 of 2): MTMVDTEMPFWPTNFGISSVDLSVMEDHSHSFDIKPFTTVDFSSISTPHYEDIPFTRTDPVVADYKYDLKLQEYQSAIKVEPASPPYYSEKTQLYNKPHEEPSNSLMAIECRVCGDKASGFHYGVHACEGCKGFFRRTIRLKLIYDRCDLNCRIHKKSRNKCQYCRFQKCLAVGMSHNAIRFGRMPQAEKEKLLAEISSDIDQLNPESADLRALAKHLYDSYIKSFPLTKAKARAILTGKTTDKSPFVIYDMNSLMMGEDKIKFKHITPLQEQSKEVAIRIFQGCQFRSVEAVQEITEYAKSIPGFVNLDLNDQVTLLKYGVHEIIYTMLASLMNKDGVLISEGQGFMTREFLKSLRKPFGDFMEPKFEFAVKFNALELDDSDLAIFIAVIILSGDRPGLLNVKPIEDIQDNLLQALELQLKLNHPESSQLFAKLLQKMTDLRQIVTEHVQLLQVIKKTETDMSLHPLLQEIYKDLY
PPARg:RXRa, sequence (P19793 whole entry, chain 2 of 2): as the sequence (P19793 whole entry, chain 2 of 2) above
LXRb:RXRa, sequence (P55055 whole entry, chain 1 of 2): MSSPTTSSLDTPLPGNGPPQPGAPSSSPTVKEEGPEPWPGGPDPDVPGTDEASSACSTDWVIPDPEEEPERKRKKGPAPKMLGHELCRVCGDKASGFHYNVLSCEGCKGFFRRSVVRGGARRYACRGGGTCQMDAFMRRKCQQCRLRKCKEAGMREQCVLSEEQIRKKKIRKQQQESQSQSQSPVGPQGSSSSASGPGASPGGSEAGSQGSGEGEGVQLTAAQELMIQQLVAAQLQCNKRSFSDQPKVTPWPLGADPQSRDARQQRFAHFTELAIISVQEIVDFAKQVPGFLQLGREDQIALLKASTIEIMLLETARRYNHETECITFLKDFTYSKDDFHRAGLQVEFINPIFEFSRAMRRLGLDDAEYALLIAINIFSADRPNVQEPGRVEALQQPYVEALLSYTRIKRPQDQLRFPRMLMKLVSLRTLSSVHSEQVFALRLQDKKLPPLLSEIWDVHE
LXRb:RXRa, sequence (P19793 whole entry, chain 2 of 2): as the sequence (P19793 whole entry, chain 2 of 2) above

| Binder | binding signal (PPARg:RXRa) | binding signal (LXRb:RXRa) | binding signal (LXRa:RXRa) | binding signal (FXR:RXRa) | other results |
| --- | --- | --- | --- | --- | --- |
| B1 | 10.2 PBM z-score against 500 random probes | 3.56 PBM z-score against 500 random probes |  |  |  |
| B2 | 12.4 PBM z-score against 500 random probes |  |  |  | binding signal (PXR:RXRa): 6.49 PBM z-score against 500 random probes |
| B3 | 10.7 PBM z-score against 500 random probes |  |  |  | binding signal (PXR:RXRa): 7.27 PBM z-score against 500 random probes |
| B4 | 0.38 PBM z-score against 500 random probes |  |  |  | binding signal (PXR:RXRa): -0.08 PBM z-score against 500 random probes |
| B5 | 0.25 PBM z-score against 500 random probes | 0.02 PBM z-score against 500 random probes |  |  |  |
| B6 | 12.3 PBM z-score against 500 random probes |  | 7.38 PBM z-score against 500 random probes | 8.85 PBM z-score against 500 random probes |  |
| B7 | 11.8 PBM z-score against 500 random probes |  | 7.33 PBM z-score against 500 random probes | 8.83 PBM z-score against 500 random probes |  |
| B8 | 0.47 PBM z-score against 500 random probes |  |  |  | binding signal (VDR:RXRa): 0.06 PBM z-score against 500 random probes |
| B9 | 10.2 PBM z-score against 500 random probes | 6.54 PBM z-score against 500 random probes |  | 7.97 PBM z-score against 500 random probes | binding signal (RXRa): 8.8 PBM z-score against 500 random probes; binding signal (PPARa:RXRa): 7.26 PBM z-score against 500 random probes |
| B10 | 10.1 PBM z-score against 500 random probes | 6.47 PBM z-score against 500 random probes | 7.01 PBM z-score against 500 random probes | 8.84 PBM z-score against 500 random probes | binding signal (RXRa): 8.08 PBM z-score against 500 random probes; binding signal (RARb:RXRa): 6.16 PBM z-score against 500 random probes; binding signal (RARg:RXRa): 7.62 PBM z-score against 500 random probes; binding signal (PPARa:RXRa): 7.57 PBM z-score against 500 random probes |
| B11 | 10.4 PBM z-score against 500 random probes |  |  |  | binding signal (VDR:RXRa): 3.31 PBM z-score against 500 random probes |
| B12 | -0.63 PBM z-score against 500 random probes | -0.48 PBM z-score against 500 random probes |  |  |  |
| B13 | 9.87 PBM z-score against 500 random probes | 6.31 PBM z-score against 500 random probes | 7.37 PBM z-score against 500 random probes | 9.06 PBM z-score against 500 random probes | binding signal (RXRa): 8.68 PBM z-score against 500 random probes; binding signal (RARb:RXRa): 6.38 PBM z-score against 500 random probes; binding signal (RARg:RXRa): 8.25 PBM z-score against 500 random probes; binding signal (PPARa:RXRa): 6.81 PBM z-score against 500 random probes |
| B14 | 0.5 PBM z-score against 500 random probes |  | -0.1 PBM z-score against 500 random probes |  |  |
| B15 | 0.35 PBM z-score against 500 random probes | 0.14 PBM z-score against 500 random probes | 0.09 PBM z-score against 500 random probes |  |  |
| B16 | -0.26 PBM z-score against 500 random probes |  | -0.72 PBM z-score against 500 random probes |  |  |
| B17 | 0.19 PBM z-score against 500 random probes | -0.42 PBM z-score against 500 random probes | -0.15 PBM z-score against 500 random probes | 0 PBM z-score against 500 random probes | binding signal (RARb:RXRa): -0.3 PBM z-score against 500 random probes; binding signal (VDR:RXRa): -0.26 PBM z-score against 500 random probes |
| B18 | -1.09 PBM z-score against 500 random probes |  | -0.21 PBM z-score against 500 random probes |  | binding signal (RARb:RXRa): -0.32 PBM z-score against 500 random probes |
| B19 | 10.8 PBM z-score against 500 random probes |  |  |  | binding signal (VDR:RXRa): 6.63 PBM z-score against 500 random probes |
| B20 | -0.83 PBM z-score against 500 random probes |  |  | -0.69 PBM z-score against 500 random probes | binding signal (VDR:RXRa): -0.78 PBM z-score against 500 random probes |
